Blank lines part the entries; values can stand above or below the binder they belong to.
Key:
[1] = target: T1, His-tagged cynomolgus macaque VISTA (cynomolgus macaque, UniProt A0A7N9IB00 33-194); assay: BLI (Octet QK384), His-tagged VISTA captured on anti-Penta-HIS tips, antibody as analyte, global one site fit
T1 construct: also called cynomolgus monkey VISTA; not shown: His tag

His-tagged human VISTA = target: T2, His-tagged human VISTA (human, UniProt Q9H7M9 33-194); assay: as above
T2 construct: also called human VISTA-His recombinant protein; VISTA/human His-tagged fusion protein (Sinobiological Inc); not shown: His tag

[2] = target: T3, Human VISTA expressed on cells (human, UniProt Q9H7M9 33-311); assay: flow cytometry, HEK293T cells transfected with human VISTA vs wildtype, 20 µg/ml antibody (FIGS. 1C, 2, 24)
T3 construct: also called HEK293 VISTA O/E; HEK293T cells transfected with vector encoding human VISTA
Method: The cells were washed thrice with FACS buffer (PBS with 5 mM EDTA and 0.5% BSA) and resuspended in FITC-conjugated anti-FC antibody (Invitrogen, USA) for 40 min at 2-8° C. Cells were washed again and resuspended in 200 μL of FACS flow buffer (PBS with 5 mM EDTA) for flow cytometric analysis using MACSQuant 10 (Miltenyi Biotec, Germany). After acquisition, all raw data were analyzed using Flowlogic software. Cells were gated using forward and side scatter profile and Median of Fluorescence Intensity (MFI) value was determined for native and overexpressing cell populations.

Histidine-tagged mFcγRIV = target: T4, Histidine-tagged mFcγRIV (mouse, UniProt A0A0B4J1G0 21-203); assay: BLI (Octet QK384), His-tagged receptor on anti-Penta-HIS biosensor, antibody as analyte, pH 7.2
T4 construct: also called mouse FcγRIV; mFcγRIV (50036-M08H, Sino Biological)
T4 sequence: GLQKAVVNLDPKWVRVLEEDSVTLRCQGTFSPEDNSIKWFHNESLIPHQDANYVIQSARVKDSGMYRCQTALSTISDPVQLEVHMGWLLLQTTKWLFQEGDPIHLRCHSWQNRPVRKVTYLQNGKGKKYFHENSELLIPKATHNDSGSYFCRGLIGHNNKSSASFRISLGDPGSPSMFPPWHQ

[3] = target: T5, Histidine-tagged mFcγRIIb (mouse, UniProt P08101 30-207); assay: as above
T5 construct: also called mouse FcγRIIb; mFcγRIIb (50030-M08H, Sino Biological); not shown: histidine tag
T5 sequence (looked up): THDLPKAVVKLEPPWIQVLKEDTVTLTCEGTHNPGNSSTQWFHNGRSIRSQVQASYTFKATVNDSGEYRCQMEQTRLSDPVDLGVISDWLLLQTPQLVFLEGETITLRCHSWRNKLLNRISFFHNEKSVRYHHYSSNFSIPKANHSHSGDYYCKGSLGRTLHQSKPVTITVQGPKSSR

[4] = target: T6, Histidine-tagged mFcγRIII (mouse, UniProt P08508 31-215); assay: as above
T6 construct: also called mouse FcγRIII; mFcγRIII (50326-M08H, Sino Biological); not shown: histidine tag
T6 sequence (looked up): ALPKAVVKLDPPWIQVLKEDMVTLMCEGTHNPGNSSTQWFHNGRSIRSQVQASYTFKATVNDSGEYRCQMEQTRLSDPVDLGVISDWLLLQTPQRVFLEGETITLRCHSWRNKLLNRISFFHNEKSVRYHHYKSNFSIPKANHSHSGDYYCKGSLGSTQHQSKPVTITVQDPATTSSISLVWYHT

Kd [1]: < 1000 nM
Kd (His-tagged human VISTA): < 1000 nM
B1: anti-VISTA clone 4M2-C12 IgG1 (antibody)
heavy: not shown
light: DIVITQTPAILSTSPGEKVTMTCRASSSVGYIHWYQQKPGSSPKPWIYATSNLASGVPARFSGSGSGTSNSLTITRVEAEDAATYYCQQWSSYPPITFGGGTKLEVKRTVAAPSVFIFPPSDEQLKSGTASVVCLLNNFYPREAKVQWKVDNALQSGNSQESVTEQDSKDSTYSLSSTLTLSKADYEKHKVYACEVTHQGLSSPVTKSFNRGEC
notes: Human-mouse chimeric IgG1/kappa; also called V4; clone V4

binding result [2]: binds
B2: anti-VISTA clone 9M2-C12 IgG1 (antibody, V domains shown)
VH: QVQLQQSGAELVKPGASVRLSCKASGYTFTSYWMHWVRQRPGLGLEWIGEIDPSDSYTNCNQRFKGKATLTVDKSSSTAYTQLSSLTSEDSAVYYCARWAYGPYAMDYWGQGTSVTVSS
VL: DIVMTQTPLSLPVSLGDQASISCRSSQSLVHSNGNTYLHWYLQKPGQSPKLLIYKVSNRFSGVPDRFSGSGSGTDFTLKISRVEAEDLGVYFCSQSTHVPWTFGGGTKLEIKR

binding result (Histidine-tagged mFcγRIV): binds
binding result [3]: binds
binding result [4]: binds
B3: 4M2-C12 mIgG2a (antibody)
heavy: EVKLVESGPGLVKPSQSLSLTCTVTGYSITSDYAWNWIRQFPGNKLEWMGYITYSGNISYNPSLRSRISITRDTSKNQFFLQLNSVTPEDTATYSCARSLYYPWYFDVWGAGTTVTVSSAKTTAPSVYPLAPVCGDTTGSSVTLGCLVKGYFPEPVTLTWNSGSLSSGVHTFPAVLQSDLYTLSSSVTVTSSTWPSQSITCNVAHPASSTKVDKKIEPRGPTIKPCPPCKCPAPNLLGGPSVFIFPPKIKDVLMISLSPIVTCVVVDVSEDDPDVQISWFVNNVEVHTAQTQTHREDYNSTLRVVSALPIQHQDWMSGKEFKCKVNNKDLPAPIERTISKPKGSVRAPQVYVLPPPEEEMTKKQVTLTCMVTDFMPEDIYVEWTNNGKTELNYKNTEPVLDSDGSYFMYSKLRVEKKNWVERNSYSCSVVHEGLHNHHTTKSFSRTPGK
light: DIVITQTPAILSTSPGEKVTMTCRASSSVGYIHWYQQKPGSSPKPWIYATSNLASGVPARFSGSGSGTSNSLTITRVEAEDAATYYCQQWSSYPPITFGGGTKLEVKRADAAPTVSIFPPSSEQLTSGGASVVCFLNNFYPKDINVKWKIDGSERQNGVLNSWTDQDSKDSTYSMSSTLTLTKDEYERHNSYTCEATHKTSTSPIVKSFNRNEC
notes: Mouse IgG2a format, produced in CHO cells; also called 4M2-C12 IgG2a
